Data set [1] relates to MS2 coat protein. Briefly: apparent KD of MS2 coat protein; designed switch direction (-1 OFF switch, 1 ON switch): 1; higher = weaker reporter binding. Summed up: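 RNA switches sharing common flanks were transcribed by stalled E. coli RNA polymerase on Illumina chips. A doubling series of SNAP-549-labelled MS2 coat protein, from 0.7 or 1.5 nM to 3 µM, was applied in Tris-HCl pH 7.5 buffer with KCl, MgCl2, BSA, DTT, tRNA and Tween-20. Each step lasted 0.8–1.5 h at the bottom of the series and 10–20 min at the top. Normalised cluster fluorescence was curve-fitted, giving apparent KD as the per-design median over clusters.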

Data set [2] has as its system MS2 coat protein. Nature of the data set: apparent KD of MS2 coat protein; higher = weaker reporter binding. To be noted: Eterna round: R107. Summed up:
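On-chip transcription from Illumina sequencing clusters produced the designed RNA switches. These were titrated with SNAP-549-labelled MS2 coat protein (twofold steps, 0.7 or 1.5 nM to 3 µM) in 100 mM Tris-HCl pH 7.5, 80 mM KCl, 4 mM MgCl2, with or without constant ligand. The apparent KD given is the per-design median of normalised cluster binding-curve fits.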

[3] abbreviates: input ligand: microRNA oligo, concentration not stated.
Setting [4] is: input ligand: theophylline 20 uM.
[5] abbreviates: input ligand: theophylline 2 mM.
Setting [6] is: input ligand: tryptophan 2.4 mM.

For the sequence “GCGGAACGGUGUGACAUGAGGAUCACCCAUGUAACCUCAUGUAAGGAUAUCGGGAAGAAGAAAACCGAGAAGGUACGGUGACGC [AK SSNG3-V2-29] (Eterna round: R96, puzzle: Same State NG 3)”, the entries for the “apparent KD of MS2 coat protein” value in data set [1] (input ligand: FMN 200 uM), in data set [1] (setting [3]) and in data set [1] (input ligand: none) were 399 nM, 152 nM and 706 nM, respectively.

Turning to “GUCGGUCUGUCGUGCUGAGGUGAUAGUUAACAUGAGGAUCACCCAUGUUGCUGUCGGGUCGUUGGGAGUUUUCUUCG [Modxample 118 - Jieux - Sensor for bsa-mir-208a] (Eterna round: R96, puzzle: Sensor for hsa-mir-208a)”, the “apparent KD of MS2 coat protein” value turned out to be 19.1 nM in data set [1] (input ligand: FMN 200 uM), 15.4 nM in data set [1] (setting [3]) and 22.5 nM in data set [1] (input ligand: none).

For the sequence “GCCGAACAUGAGGAUCACCCAUGUCUGGGUAAUCAAGGAUAUGGGAAGGCUUUGCCAUGACCAGAAGGUGGUUAUC [Zari] (Eterna round: R96, puzzle: Same State 1)”, the “apparent KD of MS2 coat protein” value was 26.3 nM in data set [1] (input ligand: FMN 200 uM), 38.9 nM in data set [1] (setting [3]) and 53.5 nM in data set [1] (input ligand: none).

“UGUACUAUGUGAAGGAGCGAGAAGGAGCGAACAUGAGGAUCACCCAUGUACAGGUAGGUCGCUCAGGUAGGUCGCACAUAGUACU [ArgBS - Double aptamer]”: the “apparent KD of MS2 coat protein” value in data set [2] (input ligand: arginine 13.2 mM) was 13.2 nM; in data set [2] (input ligand: none), 9.94 nM; in data set [2] (setting [4]), 14.6 nM; in data set [2] (setting [5]), 14.4 nM; in data set [2] (setting [6]), 11.7 nM.

With “CAAUAAGUACCGGUCCUCAGAUCCUCAUGACGAGGACCGGUACGGCCGCCACUCGAAACAUGAGGAUCACCCAUGUAAUAAUAAC [Brourdmod02]”, the “apparent KD of MS2 coat protein” value in data set [2] (input ligand: arginine 13.2 mM) was 20.6 nM; in data set [2] (setting [4]) it was 68.4 nM; in data set [2] (setting [5]) it was 51.9 nM.

As for “UCGCGAGAGGGAAGGAGCGUCAGCUGAGUCACAUGAGGAUCACCCAUGUCGCACAUAGUGUGACAGGUAGGUCGCCCUCCGCCCU [Leinticees]”, the “apparent KD of MS2 coat protein” value in data set [2] (input ligand: arginine 13.2 mM) was 99.6 nM; in data set [2] (input ligand: none) it was 134 nM; in data set [2] (setting [4]) it was 248 nM; in data set [2] (setting [5]), 192 nM; in data set [2] (setting [6]), 157 nM.

Turning to “CCGUCACAUGAGGAUCACCCAUGUGCGGAAGGAGCGGACGAUAGUCCAGGUAGGUCGCCGUAUAGCCAAUGACCAGCAGUGUCGG [XARG-A 22]”, the “apparent KD of MS2 coat protein” value in data set [2] (input ligand: arginine 13.2 mM) turned out to be 12.4 nM; in data set [2] (input ligand: none), 13.9 nM; in data set [2] (setting [4]) it was 16.6 nM; in data set [2] (setting [5]) it was 14.8 nM; in data set [2] (setting [6]), 15 nM.

With “AAACUUCGCAUAGGAAAACUAUGUGAAGAUCGAGGACCGGUACGGCCGCCACUCGUCCUCAACAUGAGGAUCACCCAUGUAAUAA [Mat - Exclusion - Trytophan A - D3]”, the “apparent KD of MS2 coat protein” value in data set [2] (input ligand: arginine 13.2 mM) worked out at 22.8 nM; in data set [2] (setting [4]), 23.7 nM; in data set [2] (setting [5]), 23 nM.

Regarding “CUAAAUAUAUCGGCCGCCACUUACUCAUGAGGUAACAACAUGAGGAUCACCCAUGUUUGAGGAUCAAGGACCGGGAUAUAUUUAG [AstrosSSTryB#16]”, the “apparent KD of MS2 coat protein” value turned out to be 26.1 nM in data set [2] (input ligand: arginine 13.2 mM), 37.2 nM in data set [2] (setting [4]) and 28.9 nM in data set [2] (setting [5]).

Turning to “UCACAUGAGGAUCACCCAUGUGUCAGAGAAGGAGCGGCCGCAAGGCCAGGUAGGUCGCUCGGGUAUUGUGAGGUUCACCCGUGUG [#1 Exclusion - Arginine A Attempt #12 (Inspired by cyborg)]”, the “apparent KD of MS2 coat protein” value in data set [2] (input ligand: arginine 13.2 mM) turned out to be 26.7 nM; in data set [2] (input ligand: none), 35.8 nM; in data set [2] (setting [4]), 57.3 nM; in data set [2] (setting [5]) it was 44.4 nM; in data set [2] (setting [6]) it was 34.6 nM.

On to “UACUUGCGGUCGGCCGCCACUACGAGGCAGACCUUCACAUGAGGAUCACCCAUGUAGUCGGCUAGUAGGACCGGGAUGGCAUAAA [Solasoce]”, for which the “apparent KD of MS2 coat protein” value in data set [2] (input ligand: arginine 13.2 mM) was 28.6 nM; in data set [2] (input ligand: none) it was 29.2 nM; in data set [2] (setting [4]), 41.9 nM; in data set [2] (setting [5]), 41.8 nM; in data set [2] (setting [6]), 16.3 nM.

For the origin of these results see the supplement of paper PMC9170038.
